Experimental data from patent publication US20260209364A1 (NB HEALTH LABORATORY, published 2026).

T1: human CCR7 (human, UniProt P32248 25-378)
T1 sequence: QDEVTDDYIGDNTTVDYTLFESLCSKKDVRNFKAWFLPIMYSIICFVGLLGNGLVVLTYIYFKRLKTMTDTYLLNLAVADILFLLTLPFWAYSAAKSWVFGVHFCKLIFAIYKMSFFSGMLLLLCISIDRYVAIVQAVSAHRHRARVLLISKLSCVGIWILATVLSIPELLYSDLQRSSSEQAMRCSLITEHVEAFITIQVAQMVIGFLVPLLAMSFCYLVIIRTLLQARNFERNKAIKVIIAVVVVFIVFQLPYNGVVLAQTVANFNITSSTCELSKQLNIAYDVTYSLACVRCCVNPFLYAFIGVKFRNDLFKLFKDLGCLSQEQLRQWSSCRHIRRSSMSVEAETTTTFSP


Columns and labels:
human CCR7 [1] = target: T1, human CCR7; assay: cell-based or functional assay
human CCR7 [2] = target: T1, human CCR7; assay: cell-based or functional assay; remark: listed apart in the source

IC50 (nM), inhibition of intracellular Ca2+ signaling in human CCR7 gene-transfected cells stimulated with 5x10^-8 M CCL21 (human CCR7 [1])	IC50, inhibition of CCL19-dependent cell migration of Granta-519 cells (human CCR7 [2])	IC50, inhibition of CCL19-induced intracellular Ca2+ signaling in hCCR7 gene-transfected cells (human CCR7 [2])	IC50, inhibition of CCL21-induced intracellular Ca2+ signaling in hCCR7 gene-transfected cells (human CCR7 [2])	half maximal inhibitory concentration (IC50), CCL21-induced intracellular Ca2+ signaling in MJ cells (human CCR7 [2])	Binder
16.2 nM					chimeric anti-CCR7 antibody VH0/VL0 (antibody, human IgG1, kappa, V domains shown) VH: EVQLQQSGPDLVKPGASVKISCKASGYSFTGYYMHWVKQSHGKSLEWIGRVNPNNGGTSYNKKFKVKAILTVDRSSSTAYMEFRSLTLEDSAVYYCARSESNNFYAMDYWGQGKSVTVSS VL: DILMTQTPLSLPVSLGDQVSISCRSSQSLVHSNGNTYLCWYLQKPGQSPKLLIYRVSNRFSGVPDRFSGSGSGTDFTLKISRVEAEDLGVYFCFQGSHVPHTFGSGTKLEIKR
12.5 nM					humanized anti-CCR7 antibody NB007-03 (antibody, human IgG1, kappa, V domains shown) VH: EVQLVQSGPEVVKPGASVKLSCKASGYSFTGYYMHWVKQAPGQGLEWIGRVNPNNGGTSYNKKFKVRVTLTVDRSISTAYMEFSRLRSDDTVVYYCARSESNNFYAMDYWGQGTSVTVSS VL: DIVMTQTPLSLSVTLGQPASISCRSSQSLVHSNGNTYLCWYLQKPGQSPQLLIYRVSNRFSGVPDRFSGSGSGTDFTLKISRVEAEDVGVYYCFQGSHVPHTFGSGTKVEIKR
18.2 nM	25.5 nM	21.4 nM	17.8 nM	14.8 nM	humanized anti-CCR7 antibody NB007-01 (antibody, human IgG1, kappa, V domains shown) VH: EVQLVQSGPEVVKPGASVKLSCKASGYSFTGYYMHWVKQAPGQGLEWIGRVNPNQGGTSYNKKFKVRVTITVDRSISTAYMEFSRLRSDDTVVYYCARSESNNFYAMDYWGQGTSVTVSS VL: DIVMTQSPLSLSVTPGQPASISCRSSQSLVHSNGNTYLCWYLQKPGQSPQLLIYRVSNKFSGVPDRFSGSGSGTDFTLKISRVEAEDVGVYYCFQGSHVPHTFGQGTKVEIKR
16.4 nM					humanized anti-CCR7 antibody NB007-02 (antibody, human IgG1, kappa, V domains shown) VH: EVQLVQSGPEVVKPGASVKLSCKASGYSFTGYYMHWVKQAPGQGLEWIGRVNPNQGGTSYNKKFKVRVTLTVDRSISTAYMEFSRLRSDDTVVYYCARSESNNFYAMDYWGQGTSVTVSS VL: DIVMTQSPLSLSVTPGQPASISCRSSQSLVHSNGNTYLCWYLQKPGQSPQLLIYRVSNRFSGVPDRFSGSGSGTDFTLKISRVEAEDVGVYYCFQGSHVPHTFGQGTKVEIKR
